Results taken from US20260021168A1.

What was measured:
[1] = target: ATGAM (equine Anti-thymocyte Globulin); assay: cell-based or functional assay
[2] = target: Thymoglobulin (Genzyme), rabbit anti-thymocyte globulin; assay: cell-based or functional assay
[3] = target: alemtuzumab (Campath, anti-CD52, Genzyme), intact IgG; assay: cell-based or functional assay
[4] = target: endogenous human serum IgG

Molecule	cytotoxic activity of ATGAM in whole blood after imlifidase treatment, CD3+ flow cytometry [1] [µg/mL]	cleavage of 50 µg/mL rATG in sera of imlifidase-treated subjects, SDS-PAGE and Western blot [2] [µg/mL]	block of the cytotoxic effect of alemtuzumab on CD3-positive T-cells in whole blood, flow cytometry [3] [µg/mL]	imlifidase concentration sufficient for cleavage in whole blood (SDS-PAGE of plasma, CD3+ flow cytometry) [3] [µg/mL]	imlifidase concentration sufficient for cleavage in whole blood (SDS-PAGE of plasma) [4]
imlifidase (IdeS, Immunoglobulin G-degrading enzyme of S. pyogenes)	> 30	0.5	1.9	4	–
imlifidase (IdeS, Immunoglobulin G-degrading enzyme of S. pyogenes) (protein) DSFSANQEIRYSEVTPYHVTSVWTKGVTPPANFTQGEDVFHAPYVANQGWYDITKTFNGKDDLLCGAATAGNMLHWWFDQNKDQIKRYLEEHPEKQKINFNGEQMFDVKEAIDTKNHQLDSKLFEYFKEKAFPYLSTKHLGVFPDHVIDMFINGYRLSLTNHGPTPVKEGSKDPRGGIFDAVFTRGDQSKLLTSRHDFKEKNLKEISDLIKKELTEGKALGLSHTYANVRINHVINLWGADFDSNGNLKAIYVTDSDSNASIGMKKYFVGVNSAGKVAISAKEIKEDNIGAQVLGLFTLSTGQDSWNQTN	–	–	–	–	a concentration of approx. 4 µg/mL imlifidase is sufficient to cleave all serum IgG and 100 µg/mL alemtuzumab
